Experimental findings from patent US6333167 are described below.

The target in assay [1] is LacI-SREBP2 fusion protein encoded by pCMV-ISRP (human (SREBP2 portion)).
For assay [2], the target named is APP-LacI fusion protein encoded by pCMV-APPI (Artificial Sequence).

Turning to Site-2 protease (S2P) (enzyme), the luciferase activity in the repressor release assay (pRSVO-luc reporter, CHO-K1 cells) (fold reduction) in assay [1] worked out at 100. In the case of γ-secretase (enzyme), the luciferase activity in the repressor release assay (pRSVO-luc reporter, CHO-K1 cells) (fold reduction) in assay [2] came to 35.
